Kd data for 1 substance are collected here from PMC3795262.

In this test the target is Full-length recombinant human TSG-6 (secreted product of tumor necrosis factor-stimulated gene-6) (human) (UniProt P98066). Description: not stated; preliminary results, data not shown.
Chain of UniProt P98066 (P98066 18-277): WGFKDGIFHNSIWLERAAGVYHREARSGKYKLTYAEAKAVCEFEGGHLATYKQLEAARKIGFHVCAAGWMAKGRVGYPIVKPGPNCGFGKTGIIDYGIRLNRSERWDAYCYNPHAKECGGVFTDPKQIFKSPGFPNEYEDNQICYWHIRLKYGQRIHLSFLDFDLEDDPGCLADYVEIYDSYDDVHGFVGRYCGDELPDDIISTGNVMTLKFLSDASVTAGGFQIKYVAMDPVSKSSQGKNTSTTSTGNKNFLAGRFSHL

Regarding “Inter-α-inhibitor (from UniProt P19827 35-672; P19823 55-702) (complex)”, the Kd (commonly the constant that tells how readily two partners part at equilibrium) came out at 10 nM.
